One experiment addresses gp120 Bal (HIV (Bal)). The experiment is described as follows: single-point ELISA at EC50 conc. of A-1.
Another experiment addresses gp120 SHIV SF162 P3 (SHIV SF162 P3). The experiment can be described thus: single-point ELISA at EC50 conc. of A-1. (In general: ELISA stands for enzyme-linked immunosorbent assay.)
In the next experiment the target is gp120 CAAN (HIV (CAAN)). The experiment can be described thus: single-point ELISA at EC50 conc. of A-1.
Another experiment addresses BSA (UniProt P02769 25-607). The experiment is described as follows: single-point ELISA, BSA control.

Results on eight molecules are retold here after US20240034774A1 (Gilead, published 2024).

B1: Antibody A-1 (antibody, human IgG1, kappa)
heavy: QVQLLQSGAAVTKPGASVRVSCEASGYNIRDYFIHWWRQAPGQGLQWVGWINPKTGQPNNPRQFQGRVSLTRHASWDFDTFSFYMDLKALRSDDTAVYFCARQRSDYWDFDVWGSGTQVTVSSASTKGPSVFPLAPSSKSTSGGTAALGCLVKDYFPEPVTVSWNSGALTSGVHTFPAVLQSSGLYSLSSVVTVPSSSLGTQTYICNVNHKPSNTKVDKKVEPKSCDKTHTCPPCPAPELLAGPDVFLFPPKPKDTLMISRTPEVTCVVVDVSHEDPEVKFNWYVDGVEVHNAKTKPREEQYNSTYRVVSVLTVLHQDWLNGKEYKCKVSNKALPLPEEKTISKAKGQPREPQVYTLPPSREEMTKNQVSLTCLVKGFYPSDIAVEWESNGQPENNYKTTPPVLDSDGSFFLYSKLTVDKSRWQQGNVFSCSVLHEALHSHYTQKSLSLSPGK
light: DIQMTQSPSSLSASVGDTVTITCQANGYLNWYQQRRGKAPKLLIYDGSKLERGVPSRFSGRRWGQEYNLTINNLQPEDIATYFCQVYEFVVPGTRLDLKRTVAAPSVFIFPPSDEQLKSGTASVVCLLNNFYPREAKVQWKVDNALQSGNSQESVTEQDSKDSTYSLSSTLTLSKADYEKHKVYACEVTHQGLSSPVTKSFNRGEC
Take B1: the “ELISA A450” value with gp120 Bal is 0.91 A450; with gp120 SHIV SF162 P3, 0.94 A450; with gp120 CAAN, 1.06 A450; with BSA it was 0.06 A450.

B2: 1.36.1-1 (antibody, human IgG1, kappa)
heavy: QVQLVQSGAEVKKPGASVRVSCKASGYNIRDYFMHWWRQAPGQGLQWVGWINPKTGQPNNPRQFQGRVTMTRHASWDFDTFSAYMDLSRLRSDDTATYFCARQRTDYWDFDVWGQGTMVTVSSASTKGPSVFPLAPSSKSTSGGTAALGCLVKDYFPEPVTVSWNSGALTSGVHTFPAVLQSSGLYSLSSVVTVPSSSLGTQTYICNVNHKPSNTKVDKKVEPKSCDKTHTCPPCPAPELLAGPDVFLFPPKPKDTLMISRTPEVTCVVVDVSHEDPEVKFNWYVDGVEVHNAKTKPREEQYNSTYRVVSVLTVLHQDWLNGKEYKCKVSNKALPLPEEKTISKAKGQPREPQVYTLPPSREEMTKNQVSLTCLVKGFYPSDIAVEWESNGQPENNYKTTPPVLDSDGSFFLYSKLTVDKSRWQQGNVFSCSVLHEALHSHYTQKSLSLSPGK
light: DIQMTQSPSSLSASVGDTVTITCQANGYLNWYQQRRGKAPKLLIYDGSKLERGVPSRFSGRRWGQEYNLTINNLQPEDIATYFCQVYEFVVPGTRLDLKRTVAAPSVFIFPPSDEQLKSGTASVVCLLNNFYPREAKVQWKVDNALQSGNSQESVTEQDSKDSTYSLSSTLTLSKADYEKHKVYACEVTHQGLSSPVTKSFNRGEC
Regarding B2, the figures for the “ELISA A450” value with gp120 Bal, with gp120 SHIV SF162 P3 and with gp120 CAAN were 1.13 A450, 0.59 A450 and 0.75 A450, respectively.

B3: 1.1.5-1 (antibody, human IgG1, kappa)
heavy: QVQLLQSGAAVTKPGASVRVSCEASGYNIRDYFIHWWRQAPGQGLQWVGWINPKTGQPNNPRQFQGRVSLTRHASWDFDTFSFYMDLKALRSDDTAVYFCARQRSDYWDFDVWGSGTQVTVSSASTKGPSVFPLAPSSKSTSGGTAALGCLVKDYFPEPVTVSWNSGALTSGVHTFPAVLQSSGLYSLSSVVTVPSSSLGTQTYICNVNHKPSNTKVDKKVEPKSCDKTHTCPPCPAPELLAGPDVFLFPPKPKDTLMISRTPEVTCVVVDVSHEDPEVKFNWYVDGVEVHNAKTKPREEQYNSTYRVVSVLTVLHQDWLNGKEYKCKVSNKALPLPEEKTISKAKGQPREPQVYTLPPSREEMTKNQVSLTCLVKGFYPSDIAVEWESNGQPENNYKTTPPVLDSDGSFFLYSKLTVDKSRWQQGNVFSCSVLHEALHSHYTQKSLSLSPGK
light: DIQMTQSPSSLSASVGDTVTITCQANGYLNWYQQKPGKAPKLLIYDGSKLERGVPSRFSGRRWGQEYNLTINNLQPEDIATYFCQVYEFVVPGTRLDLKRTVAAPSVFIFPPSDEQLKSGTASVVCLLNNFYPREAKVQWKVDNALQSGNSQESVTEQDSKDSTYSLSSTLTLSKADYEKHKVYACEVTHQGLSSPVTKSFNRGEC
In the case of B3, the “ELISA A450” value with gp120 Bal amounted to 0.9 A450; with gp120 SHIV SF162 P3, 0.93 A450; in the experiment with gp120 CAAN, 0.9 A450; in the experiment with BSA, 0.06 A450.

B4: 1.1.6-1 (antibody, human IgG1, kappa)
heavy: QVQLLQSGAAVTKPGASVRVSCEASGYNIRDYFIHWWRQAPGQGLQWVGWINPKTGQPNNPRQFQGRVSLTRHASWDFDTFSFYMDLKALRSDDTAVYFCARQRSDYWDFDVWGSGTQVTVSSASTKGPSVFPLAPSSKSTSGGTAALGCLVKDYFPEPVTVSWNSGALTSGVHTFPAVLQSSGLYSLSSVVTVPSSSLGTQTYICNVNHKPSNTKVDKKVEPKSCDKTHTCPPCPAPELLAGPDVFLFPPKPKDTLMISRTPEVTCVVVDVSHEDPEVKFNWYVDGVEVHNAKTKPREEQYNSTYRVVSVLTVLHQDWLNGKEYKCKVSNKALPLPEEKTISKAKGQPREPQVYTLPPSREEMTKNQVSLTCLVKGFYPSDIAVEWESNGQPENNYKTTPPVLDSDGSFFLYSKLTVDKSRWQQGNVFSCSVLHEALHSHYTQKSLSLSPGK
light: DIQMTQSPSSLSASVGDTVTITCQANGYLNWYQQRRGKAPKLLIYDASKLERGVPSRFSGRRWGQEYNLTINNLQPEDIATYFCQVYEFVVPGTRLDLKRTVAAPSVFIFPPSDEQLKSGTASVVCLLNNFYPREAKVQWKVDNALQSGNSQESVTEQDSKDSTYSLSSTLTLSKADYEKHKVYACEVTHQGLSSPVTKSFNRGEC
Consider B4, for which the “ELISA A450” value was found to be 0.91 A450 with gp120 Bal, 0.41 A450 in the experiment with gp120 SHIV SF162 P3, 0.46 A450 with gp120 CAAN and 0.07 A450 with BSA.

B5: 1.1.7-1 (antibody, human IgG1, kappa)
heavy: QVQLLQSGAAVTKPGASVRVSCEASGYNIRDYFIHWWRQAPGQGLQWVGWINPKTGQPNNPRQFQGRVSLTRHASWDFDTFSFYMDLKALRSDDTAVYFCARQRSDYWDFDVWGSGTQVTVSSASTKGPSVFPLAPSSKSTSGGTAALGCLVKDYFPEPVTVSWNSGALTSGVHTFPAVLQSSGLYSLSSVVTVPSSSLGTQTYICNVNHKPSNTKVDKKVEPKSCDKTHTCPPCPAPELLAGPDVFLFPPKPKDTLMISRTPEVTCVVVDVSHEDPEVKFNWYVDGVEVHNAKTKPREEQYNSTYRVVSVLTVLHQDWLNGKEYKCKVSNKALPLPEEKTISKAKGQPREPQVYTLPPSREEMTKNQVSLTCLVKGFYPSDIAVEWESNGQPENNYKTTPPVLDSDGSFFLYSKLTVDKSRWQQGNVFSCSVLHEALHSHYTQKSLSLSPGK
light: DIQMTQSPSSLSASVGDTVTITCQANGYLNWYQQRRGKAPKLLIYDGSNLERGVPSRFSGRRWGQEYNLTINNLQPEDIATYFCQVYEFVVPGTRLDLKRTVAAPSVFIFPPSDEQLKSGTASVVCLLNNFYPREAKVQWKVDNALQSGNSQESVTEQDSKDSTYSLSSTLTLSKADYEKHKVYACEVTHQGLSSPVTKSFNRGEC
For the molecule B5, the “ELISA A450” value was 0.95 A450 with gp120 Bal, 1.02 A450 in the experiment with gp120 SHIV SF162 P3, 1 A450 with gp120 CAAN and 0.06 A450 with BSA.

B6: 1.1.8-1 (antibody, human IgG1, kappa)
heavy: QVQLLQSGAAVTKPGASVRVSCEASGYNIRDYFIHWWRQAPGQGLQWVGWINPKTGQPNNPRQFQGRVSLTRHASWDFDTFSFYMDLKALRSDDTAVYFCARQRSDYWDFDVWGSGTQVTVSSASTKGPSVFPLAPSSKSTSGGTAALGCLVKDYFPEPVTVSWNSGALTSGVHTFPAVLQSSGLYSLSSVVTVPSSSLGTQTYICNVNHKPSNTKVDKKVEPKSCDKTHTCPPCPAPELLAGPDVFLFPPKPKDTLMISRTPEVTCVVVDVSHEDPEVKFNWYVDGVEVHNAKTKPREEQYNSTYRVVSVLTVLHQDWLNGKEYKCKVSNKALPLPEEKTISKAKGQPREPQVYTLPPSREEMTKNQVSLTCLVKGFYPSDIAVEWESNGQPENNYKTTPPVLDSDGSFFLYSKLTVDKSRWQQGNVFSCSVLHEALHSHYTQKSLSLSPGK
light: DIQMTQSPSSLSASVGDTVTITCQANGYLNWYQQRRGKAPKLLIYDASNLERGVPSRFSGRRWGQEYNLTINNLQPEDIATYFCQVYEFVVPGTRLDLKRTVAAPSVFIFPPSDEQLKSGTASVVCLLNNFYPREAKVQWKVDNALQSGNSQESVTEQDSKDSTYSLSSTLTLSKADYEKHKVYACEVTHQGLSSPVTKSFNRGEC
With B6, the “ELISA A450” value worked out at 1.01 A450 with gp120 Bal, 0.37 A450 in the experiment with gp120 SHIV SF162 P3, 0.5 A450 with gp120 CAAN and 0.06 A450 with BSA.

B7: 1.1.3-1 (antibody, human IgG1, kappa)
heavy: QVQLLQSGAAVTKPGASVRVSCEASGYNIRDYFIHWWRQAPGQGLQWVGWINPKTGQPNNPRQFQGRVSLTRHASWDFDTFSFYMDLKALRSDDTAVYFCARQRSDYWDFDVWGSGTQVTVSSASTKGPSVFPLAPSSKSTSGGTAALGCLVKDYFPEPVTVSWNSGALTSGVHTFPAVLQSSGLYSLSSVVTVPSSSLGTQTYICNVNHKPSNTKVDKKVEPKSCDKTHTCPPCPAPELLAGPDVFLFPPKPKDTLMISRTPEVTCVVVDVSHEDPEVKFNWYVDGVEVHNAKTKPREEQYNSTYRVVSVLTVLHQDWLNGKEYKCKVSNKALPLPEEKTISKAKGQPREPQVYTLPPSREEMTKNQVSLTCLVKGFYPSDIAVEWESNGQPENNYKTTPPVLDSDGSFFLYSKLTVDKSRWQQGNVFSCSVLHEALHSHYTQKSLSLSPGK
light: EIQMTQSPSSLSASVGDTVTITCQANGYLNWYQQRRGKAPKLLIYDGSKLERGVPSRFSGRRWGQEYNLTINNLQPEDIATYFCQVYEFVVPGTRLDLKRTVAAPSVFIFPPSDEQLKSGTASVVCLLNNFYPREAKVQWKVDNALQSGNSQESVTEQDSKDSTYSLSSTLTLSKADYEKHKVYACEVTHQGLSSPVTKSFNRGEC
For the molecule B7, the “ELISA A450” value in the experiment with gp120 Bal came out at 0.97 A450; in the experiment with gp120 SHIV SF162 P3, 0.97 A450; with gp120 CAAN, 1 A450; with BSA, 0.07 A450.

B8: 1.1.4-1 (antibody, human IgG1, kappa)
heavy: QVQLLQSGAAVTKPGASVRVSCEASGYNIRDYFIHWWRQAPGQGLQWVGWINPKTGQPNNPRQFQGRVSLTRHASWDFDTFSFYMDLKALRSDDTAVYFCARQRSDYWDFDVWGSGTQVTVSSASTKGPSVFPLAPSSKSTSGGTAALGCLVKDYFPEPVTVSWNSGALTSGVHTFPAVLQSSGLYSLSSVVTVPSSSLGTQTYICNVNHKPSNTKVDKKVEPKSCDKTHTCPPCPAPELLAGPDVFLFPPKPKDTLMISRTPEVTCVVVDVSHEDPEVKFNWYVDGVEVHNAKTKPREEQYNSTYRVVSVLTVLHQDWLNGKEYKCKVSNKALPLPEEKTISKAKGQPREPQVYTLPPSREEMTKNQVSLTCLVKGFYPSDIAVEWESNGQPENNYKTTPPVLDSDGSFFLYSKLTVDKSRWQQGNVFSCSVLHEALHSHYTQKSLSLSPGK
light: DIQMTQSPSSLSASVGDRVTITCQANGYLNWYQQRRGKAPKLLIYDGSKLERGVPSRFSGRRWGQEYNLTINNLQPEDIATYFCQVYEFVVPGTRLDLKRTVAAPSVFIFPPSDEQLKSGTASVVCLLNNFYPREAKVQWKVDNALQSGNSQESVTEQDSKDSTYSLSSTLTLSKADYEKHKVYACEVTHQGLSSPVTKSFNRGEC
Take B8: the “ELISA A450” value is 0.96 A450 with gp120 Bal, 1.07 A450 with gp120 SHIV SF162 P3, 1.09 A450 with gp120 CAAN and 0.06 A450 in the experiment with BSA.
